In US20110281938, “APTAMERS TO TISSUE FACTOR PATHWAY INHIBITOR AND THEIR USE AS BLEEDING DISORDER THERAPEUTICS” (Baxter Healthcare S.A., published 2011):

How the values were obtained:
Details in all cases: tags: American Diagnostica 4500PC/4900PC, E. coli expressed
[1] = target: T1, TFPI (tissue factor pathway inhibitor, full-length) (Homo sapiens, UniProt P10646 SEQ:1-276); test: competition; meets binding-competition criterion
Description: (§1) Each molecule was evaluated for binding to tissue factor pathway inhibitor (TFPI) in a binding-competition assay. For these experiments, 10 nM human TFPI (American Diagnostica, Stamford, Conn., catalog #4500PC) was incubated with trace amounts of radiolabeled ARC17480 and 5000 nM, 1666.67 nM, 555.56 nM, 185.19 nM, 61.73 nM, 20.58 nM, 6.86 nM, 2.29 nM, 0.76 nM or 0.25 nM of unlabeled competitor aptamer. ARC17480 was included as a competitor in every experiment as a control. For each molecule, the percentage of radiolabeled ARC17480 bound at each competitor aptamer concentration was used for analysis. The percentage of radiolabeled ARC17480 bound was plotted as a function of aptamer concentration and fit to the equation y=(max/(1+x/IC₅₀))+int, where y=the percentage of radiolabeled ARC17480 bound, x=the concentration of aptamer, max=the maximum radiolabeled ARC17480 bound, and int=the y-intercept, to generate an IC₅₀ value for binding-competition. The IC₅₀ of each aptamer was compared to the IC₅₀ of ARC17480 that was evaluated in the same experiment. A substitution was considered tolerated in the binding-competition assay if the IC₅₀ of that molecule was not more than 5-fold greater than that of ARC17480 evaluated in the same experiment. Tolerated substitutions are indicated in Table 38 as meeting the assay criteria (“yes”) or not meeting the assay criteria (“no”).

[2] = target: T1, TFPI (tissue factor pathway inhibitor, …); test: competition; fails binding-competition criterion
Description: as §1

[3] = target: T1, TFPI (tissue factor pathway inhibitor, …); test: competition; fails binding-competition criterion; remark: listed apart in the source
Description: The substituted ARC17480 molecules were assayed for binding and function. The assays used for this evaluation were the calibrated automated thrombogram (CAT) assay, a dot-blot binding-competition assay and a FXa activity assay. The results of these assays are summarized in Table 40 and depicted in FIG. 147. A mutation was considered tolerated for activity if it met the criteria of at least two of the three assays that were carried out. Mutations that are tolerated (“yes”) and not tolerated (“no”) are identified in Table 40. The experimental details and the criteria used for each assay are described in the following paragraphs. The molecules described in this example were first tested in the CAT assay and the dot-blot binding-competition assay. In most cases, molecules were only tested in the FXa assay if there was a discrepancy between the results in the CAT assay and the dot-blot binding-competition assay.
Each molecule was evaluated for binding to tissue factor pathway inhibitor (TFPI) in a binding-competition assay. For these experiments, 10 nM human TFPI (American Diagnostica, Stamford, Conn., catalog #4900PC) was incubated with trace amounts of radiolabeled ARC17480 and 5000 nM, 1666.67 nM, 555.56 nM, 185.19 nM, 61.73 nM, 20.58 nM, 6.86 nM, 2.29 nM, 0.76 nM or 0.25 nM of unlabeled competitor aptamer. ARC17480 was included as a competitor in every experiment as a control. For each molecule, the percentage of radiolabeled ARC17480 bound at each competitor aptamer concentration was used for analysis. The percentage of radiolabeled ARC17480 bound was plotted as a function of aptamer concentration and fit to the equation y=(max/(1+x/IC₅₀))+int, where y=the percentage of radiolabeled ARC17480 bound, x=the concentration of aptamer, max=the maximum radiolabeled ARC17480 bound, and int=the y-intercept, to generate an IC₅₀ value for binding-competition. The IC₅₀ of each aptamer was compared to the IC₅₀ of ARC17480 that was evaluated in the same experiment. A mutation was considered tolerated in the binding-competition assay if the IC₅₀ of that molecule was not more than 5-fold greater than that of ARC17480 evaluated in the same experiment. Tolerated mutations are indicated in Table 40 as meeting the assay criteria (“yes”) or not meeting the assay criteria (“no”).

T1 sequence (P10646 29-304): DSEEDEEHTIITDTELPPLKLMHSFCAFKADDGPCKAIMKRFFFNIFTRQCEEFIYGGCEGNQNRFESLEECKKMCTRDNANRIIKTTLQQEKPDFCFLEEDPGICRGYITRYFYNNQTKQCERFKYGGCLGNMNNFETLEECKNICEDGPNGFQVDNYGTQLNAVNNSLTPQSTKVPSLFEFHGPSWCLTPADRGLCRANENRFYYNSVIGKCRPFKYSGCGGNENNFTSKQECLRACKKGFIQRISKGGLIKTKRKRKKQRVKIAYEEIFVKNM

| Binder | binding signal [1] | binding signal [3] | also measured |
| --- | --- | --- | --- |
| AAUAUACUUGGCUCGUUAGGUGCGUAUA (mixed, 2'-OMe A/G/U, 2'-deoxy C, 3' idT) [ARC32306] | ≤ 5 fold IC50 of ARC17480 |  |  |
| GAAUAUACUUGGCUCGUUAGGUGCGUAUAUA (mixed, 2'-OMe A/G/U, 2'-deoxy C, 3' idT) [ARC32301] | ≤ 5 fold IC50 of ARC17480 |  |  |
| GGAAAUACUUGGCUCGUUAGGUGCGUAUAUA (mixed, 2'-OMe A/G/U, 2'-deoxy C, 3' idT) [ARC33121] | ≤ 5 fold IC50 of ARC17480 |  |  |
| GGAUAUACUUGGCUCGUUAGGUGCGUAUAUA (mixed, 2'-OMe A/G/U, 2'-deoxy C, 3' idT) [ARC33120] | ≤ 5 fold IC50 of ARC17480 |  |  |
| GGAAUAUACUUGGCUCGUUAGGGCGUAUAUA (mixed, 2'-OMe A/G/U, 2'-deoxy C, 3' idT) [ARC33135] |  |  | binding signal [2]: > 5 fold IC50 of ARC17480 |
| GGAAUAUACUUGGCUCGUUAGGUGGUAUAUA (mixed, 2'-OMe A/G/U, 2'-deoxy C, 3' idT) [ARC33137] |  |  | binding signal [2]: > 5 fold IC50 of ARC17480 |
| GGAAUAUACUUGGCUCGUUAGGUCGUAUAUA (mixed, 2'-OMe A/G/U, 2'-deoxy C, 3' idT) [ARC33136] |  |  | binding signal [2]: > 5 fold IC50 of ARC17480 |
| GGAAUAUACUUGGCUCGUUAGGUGCUAUAUA (mixed, 2'-OMe A/G/U, 2'-deoxy C, 3' idT) [ARC33138] |  |  | binding signal [2]: > 5 fold IC50 of ARC17480 |
| GGAAUAUACUUGGCUCGUUAGGUGCGUAUAA (mixed, 2'-OMe A/G/U, 2'-deoxy C, 3' idT) [ARC33143] | ≤ 5 fold IC50 of ARC17480 |  |  |
| GGAAUAUACUUGGCUCGUUAGGUGCGUAUAU (mixed, 2'-OMe A/G/U, 2'-deoxy C, 3' idT) [ARC18555] | ≤ 5 fold IC50 of ARC17480 |  |  |
| AUACUUGGCUCGUUAGGUGCGUAUA (mixed, 2'-OMe A/G/U, 2'-deoxy C, 3' idT) [ARC33895] | ≤ 5 fold IC50 of ARC17480 |  |  |
| GGAAUAUACUUCUCGUUAGGUGCGUAUAUA (mixed, 2'-OMe A/G/U, 2'-deoxy C, 3' idT) [ARC33146] |  |  | binding signal [2]: > 5 fold IC50 of ARC17480 |
| AAUAUACUUGGCUCGUUAGGUGCGUAUAUA (mixed, 2'-OMe A/G/U, 2'-deoxy C, 3' idT) [ARC32302] | ≤ 5 fold IC50 of ARC17480 |  |  |
| GGAAUAUACUUGGCUCGUUAGGUGCGAUAUA (mixed, 2'-OMe A/G/U, 2'-deoxy C, 3' idT) [ARC33139] |  |  | binding signal [2]: > 5 fold IC50 of ARC17480 |
| GGAAUAUACUUGGCUCGUUAGGUGCGUUAUA (mixed, 2'-OMe A/G/U, 2'-deoxy C, 3' idT) [ARC33140] |  |  | binding signal [2]: > 5 fold IC50 of ARC17480 |
| GGAAUAUACUUGGCUCGUUAGGUGCGUAUUA (mixed, 2'-OMe A/G/U, 2'-deoxy C, 3' idT) [ARC33142] | ≤ 5 fold IC50 of ARC17480 |  |  |
| UAUACUUGGCUCGUUAGGUGCGUAUA (mixed, 2'-OMe A/G/U, 2'-deoxy C, 3' idT) [ARC33891] | ≤ 5 fold IC50 of ARC17480 |  |  |
| GGAAUAUACUUGGCUCUUAGGUGCGUAUAUA (mixed, 2'-OMe A/G/U, 2'-deoxy C, 3' idT) [ARC33131] |  |  | binding signal [2]: > 5 fold IC50 of ARC17480 |
| GGAAUAUACUUGGCUCGUUGGUGCGUAUAUA (mixed, 2'-OMe A/G/U, 2'-deoxy C, 3' idT) [ARC33133] |  |  | binding signal [2]: > 5 fold IC50 of ARC17480 |
| GGAAUAUACUUGGCUCGUUAGUGCGUAUAUA (mixed, 2'-OMe A/G/U, 2'-deoxy C, 3' idT) [ARC33134] |  |  | binding signal [2]: > 5 fold IC50 of ARC17480 |
| GGAAUAUACUUGGCUCGUUAUGCGUAUAUA (mixed, 2'-OMe A/G/U, 2'-deoxy C, 3' idT) [ARC33148] |  |  | binding signal [2]: > 5 fold IC50 of ARC17480 |
| AUAUACUUGGCUCGUUAGGUGCGUAU (mixed, 2'-OMe A/G/U, 2'-deoxy C, 3' idT) [ARC32307] | ≤ 5 fold IC50 of ARC17480 |  |  |
| GGUAUACUUGGCUCGUUAGGUGCGUAUAUA (mixed, 2'-OMe A/G/U, 2'-deoxy C, 3' idT) [ARC33144] | ≤ 5 fold IC50 of ARC17480 |  |  |

| Binder | binding signal [1] | binding signal [3] | also measured |
| --- | --- | --- | --- |
| GGAAUAUACUUGGCUTGUUAGGUGCGUAUAUA (mixed, 2'-OMe A/G/U, dT16, 2'-deoxy C, 3' idT) [ARC33164] |  | > 5 fold IC50 of ARC17480 |  |
| GGAAUAUACUUGGCUCGUUUGGUGCGUAUAUA (mixed, 2'-OMe A/G/U, 2'-deoxy C, 3' idT) [ARC33168] |  | > 5 fold IC50 of ARC17480 |  |
| GGAAUAUACUUGGCUCGUUAGGUGCGCAUAUA (mixed, 2'-OMe A/G/U and mC27, other C 2'-deoxy, 3' idT) [ARC33175] |  | > 5 fold IC50 of ARC17480 |  |
| GGAAUAUACUUUGCUCGUUAGGUGCGUAUAUA (mixed, 2'-OMe A/G/U, 2'-deoxy C, 3' idT) [ARC33160] |  | > 5 fold IC50 of ARC17480 |  |
| GGAAUAGACUUGGCUCGUUAGGUGCGUAUAUA (mixed, 2'-OMe A/G/U, 2'-deoxy C, 3' idT) [ARC34869] |  | > 5 fold IC50 of ARC17480 |  |
| GGAAUAUACUUGGCUCGUUAGGUGCGUUUAUA (mixed, 2'-OMe A/G/U, 2'-deoxy C, 3' idT) [ARC33176] |  | > 5 fold IC50 of ARC17480 |  |
| GGAAUAUACUUGGCUCGUUAGGUGTGUAUAUA (mixed, 2'-OMe A/G/U, dT25, 2'-deoxy C, 3' idT) [ARC33173] |  | > 5 fold IC50 of ARC17480 |  |
| GGAAUAUACUUGGCUCGUUAGGUGCUUAUAUA (mixed, 2'-OMe A/G/U, 2'-deoxy C, 3' idT) [ARC33174] |  | > 5 fold IC50 of ARC17480 |  |
| GGAAUAUACUCGGCUCGUUAGGUGCGUAUAUA (mixed, 2'-OMe A/G/U and mC11, other C 2'-deoxy, 3' idT) [ARC33159] |  | > 5 fold IC50 of ARC17480 |  |
| GGAAUAUATUUGGCUCGUUAGGUGCGUAUAUA (mixed, 2'-OMe A/G/U, dT9, 2'-deoxy C, 3' idT) [ARC33157] |  | > 5 fold IC50 of ARC17480 |  |
| GGAAUAUACUUGGCUCGUUAGUUGCGUAUAUA (mixed, 2'-OMe A/G/U, 2'-deoxy C, 3' idT) [ARC33170] |  | > 5 fold IC50 of ARC17480 |  |
| GGAAUAUACUUGGCCCGUUAGGUGCGUAUAUA (mixed, 2'-OMe A/G/U and mC15, other C 2'-deoxy, 3' idT) [ARC33163] |  | > 5 fold IC50 of ARC17480 |  |
| GGAAUAUACUUGGCUCGUUAGGUUCGUAUAUA (mixed, 2'-OMe A/G/U, 2'-deoxy C, 3' idT) [ARC33172] |  | > 5 fold IC50 of ARC17480 |  |
| GGAAUAUACUUGGCUCGUUAGGCGCGUAUAUA (mixed, 2'-OMe A/G/U and mC23, other C 2'-deoxy, 3' idT) [ARC33171] |  | > 5 fold IC50 of ARC17480 |  |
| GGAAUAAACUUGGCUCGUUAGGUGCGUAUAUA (mixed, 2'-OMe A/G/U, 2'-deoxy C, 3' idT) [ARC34868] |  | > 5 fold IC50 of ARC17480 |  |
| GGAAUAUACUUGUCUCGUUAGGUGCGUAUAUA (mixed, 2'-OMe A/G/U, 2'-deoxy C, 3' idT) [ARC33161] |  | > 5 fold IC50 of ARC17480 |  |
| GGAAUAUACUUGGCUCUUUAGGUGCGUAUAUA (mixed, 2'-OMe A/G/U, 2'-deoxy C, 3' idT) [ARC33165] |  | > 5 fold IC50 of ARC17480 |  |
| AUAUACUUGGCUCGUUAGGUGCGUAUA (mixed, 2'-OMe A/G/U, 2'-deoxy C, 3' idT) [ARC33890] | ≤ 5 fold IC50 of ARC17480 |  |  |
| GAAUAUACUUGGCUCGUUAGGUGCGUAUAU (mixed, 2'-OMe A/G/U, 2'-deoxy C, 3' idT) [ARC32305] | ≤ 5 fold IC50 of ARC17480 |  |  |
| AUAUACUUGGCUCGUUAGGUGCGUAUAUA (mixed, 2'-OMe A/G/U, 2'-deoxy C, 3' idT) [ARC32303] | ≤ 5 fold IC50 of ARC17480 |  |  |
| GGAAUAUACUUGGCUCGAGGUGCGUAUAUA (mixed, 2'-OMe A/G/U, 2'-deoxy C, 3' idT) [ARC33147] |  |  | binding signal [2]: > 5 fold IC50 of ARC17480 |
| GGAAUAUACGGCUCGUUAGGUGCGUAUAUA (mixed, 2'-OMe A/G/U, 2'-deoxy C, 3' idT) [ARC33145] |  |  | binding signal [2]: > 5 fold IC50 of ARC17480 |
